Reference: patent publication CN115246884A (SHANGHAI JUNSHI BIOSCIENCES CO LTD; JUNMENG BIOSCIENCES CO …, dated 2022)
Changes are numbered by the printed parent chain. Blank lines part the entries; values can stand above or below the molecule they belong to.

Assays:
[1] = biological target: 人PD-L1重组蛋白 (human) (UniProt Q9NZQ7); assay: Biacore SPR, AHC capture of antibody, PD-L1 as analyte 0.78125-12.5 nM
[2] = biological target: MAB-BA-231细胞表面人PD-L1 (human) (UniProt Q9NZQ7); assay: FACS on cells carrying human PD-L1
[3] = biological target: His标签人PD-L1抗原 (human) (UniProt Q9NZQ7); assay: ELISA, His-tagged human PD-L1 coated at 2.0 μg/mL; ratio = EC50 of chimeric antibody C1 (chC1) / EC50 of humanised antibody x 100%
[4] = biological target: 生物素化的PD-L1抗原 (UniProt Q9NZQ7); assay: competition ELISA, biotinylated PD-L1 on streptavidin, competitor PD-1 mFc 2.0 μg/mL; ratio = IC50 of chimeric antibody / IC50 of humanised antibody x 100%
[5] = biological target: T1, 人PD-L1重组蛋白 (human, UniProt Q9NZQ7 19-238); assay: ELISA, inhibition of recombinant human PD-L1 binding to PD-1
T1 construct: also called 重组人PD-L1; 液相中游离PD-L1
T1 sequence (Q9NZQ7 19-238 limits assumed): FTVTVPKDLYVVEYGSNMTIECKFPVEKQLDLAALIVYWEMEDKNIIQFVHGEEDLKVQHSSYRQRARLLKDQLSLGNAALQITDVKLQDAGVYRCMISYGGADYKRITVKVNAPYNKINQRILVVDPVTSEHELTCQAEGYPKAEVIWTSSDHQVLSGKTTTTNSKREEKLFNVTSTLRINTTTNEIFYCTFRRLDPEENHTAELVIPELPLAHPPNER

[6] = biological target: T2, MAB-BA-231细胞表面人PD-L1 (human, UniProt Q9NZQ7 19-290); assay: FACS on MAB-BA-231 cells carrying human PD-L1
T2 construct: whole, on cells; also called 人PD-L1高表达细胞株(MBA-MA-231)
T2 sequence (Q9NZQ7 19-290): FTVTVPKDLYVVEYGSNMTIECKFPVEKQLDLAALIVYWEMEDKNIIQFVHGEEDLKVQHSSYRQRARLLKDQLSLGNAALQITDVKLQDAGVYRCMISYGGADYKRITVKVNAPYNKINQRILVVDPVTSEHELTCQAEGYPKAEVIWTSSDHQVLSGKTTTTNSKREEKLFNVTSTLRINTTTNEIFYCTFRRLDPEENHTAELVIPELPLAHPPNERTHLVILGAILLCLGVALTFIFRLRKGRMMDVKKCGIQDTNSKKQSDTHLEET

[7] = biological target: T1, 人PD-L1重组蛋白; assay: Biacore SPR, AHC capture of antibody, PD-L1 as analyte 0.78125-12.5 nM
[8] = biological target: T3, B7H3重组蛋白 (UniProt Q5ZPR3 29-461, limits assumed); assay: ELISA on recombinant proteins
T3 sequence (looked up): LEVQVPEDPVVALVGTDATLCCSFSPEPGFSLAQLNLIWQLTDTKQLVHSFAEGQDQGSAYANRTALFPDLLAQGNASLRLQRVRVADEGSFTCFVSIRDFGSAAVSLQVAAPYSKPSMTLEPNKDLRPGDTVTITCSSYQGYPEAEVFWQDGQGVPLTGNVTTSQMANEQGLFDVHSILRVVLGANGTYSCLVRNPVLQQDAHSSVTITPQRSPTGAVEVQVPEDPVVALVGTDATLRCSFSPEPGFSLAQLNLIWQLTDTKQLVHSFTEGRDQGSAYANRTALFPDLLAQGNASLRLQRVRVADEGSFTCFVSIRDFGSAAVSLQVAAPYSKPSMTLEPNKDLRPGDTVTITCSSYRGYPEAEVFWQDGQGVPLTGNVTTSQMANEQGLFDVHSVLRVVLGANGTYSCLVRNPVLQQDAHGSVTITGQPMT

[9] = biological target: CD28重组蛋白 (UniProt P10747 19-152, limits assumed); assay: ELISA on recombinant proteins
Sequence of CD28重组蛋白 (P10747 19-152 limits assumed): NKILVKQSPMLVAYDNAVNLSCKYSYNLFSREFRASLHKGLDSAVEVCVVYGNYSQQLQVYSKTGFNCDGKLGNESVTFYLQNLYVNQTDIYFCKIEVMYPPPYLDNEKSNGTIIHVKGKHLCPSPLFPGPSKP

[10] = biological target: T4, ICOS重组蛋白 (UniProt Q9Y6W8 21-140, limits assumed); assay: ELISA on recombinant proteins
T4 sequence (looked up): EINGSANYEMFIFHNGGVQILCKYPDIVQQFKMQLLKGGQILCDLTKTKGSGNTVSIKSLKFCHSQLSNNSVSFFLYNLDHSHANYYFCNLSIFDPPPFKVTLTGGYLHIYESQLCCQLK

[11] = biological target: T5, B7H4重组蛋白 (UniProt Q7Z7D3 29-258, limits assumed); assay: ELISA on recombinant proteins
T5 sequence (looked up): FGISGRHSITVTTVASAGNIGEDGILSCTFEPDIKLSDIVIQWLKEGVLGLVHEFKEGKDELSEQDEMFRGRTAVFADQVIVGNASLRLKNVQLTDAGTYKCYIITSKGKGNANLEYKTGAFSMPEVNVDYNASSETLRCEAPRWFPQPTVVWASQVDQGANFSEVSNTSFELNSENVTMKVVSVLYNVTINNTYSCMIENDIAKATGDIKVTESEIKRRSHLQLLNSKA

[12] = biological target: T6, CTLA4重组蛋白 (UniProt P16410 36-161, limits assumed); assay: ELISA on recombinant proteins
T6 sequence (looked up): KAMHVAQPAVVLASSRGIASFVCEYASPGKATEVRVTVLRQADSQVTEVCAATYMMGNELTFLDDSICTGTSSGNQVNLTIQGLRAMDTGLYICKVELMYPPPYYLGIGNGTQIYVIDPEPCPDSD

[13] = biological target: T7, PD-1重组蛋白 (UniProt Q15116 25-167, limits assumed); assay: ELISA on recombinant proteins
T7 construct: also called 受体PD-1
T7 sequence (Q15116 25-167 limits assumed): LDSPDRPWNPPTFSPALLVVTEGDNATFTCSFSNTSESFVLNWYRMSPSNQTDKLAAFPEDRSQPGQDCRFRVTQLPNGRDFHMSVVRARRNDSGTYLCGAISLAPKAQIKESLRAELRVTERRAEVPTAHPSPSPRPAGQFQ

B1: 人源化抗PD-L1单域抗体C1-hu1 (Fc fusion, not shown: a dimerising Fc or GST)
heavy: EVQLLESGGGLVQPGGSLRLSCAASGAAPCMAWFRQAPGKGLEGVSASVRGGLSPYYADVKGRFTISHDIPKNTMYLQMNSLRAEDTAVYYCAARATFYRCEGDASSYTYWGQGTLVTVSS
相对结合活性，% [3]: 45.5%
相对竞争抑制活性，% [4]: 53.4%

B2: 人源化抗PD-L1单域抗体C1-hu2 (Fc fusion, not shown: a dimerising Fc or GST)
heavy: B1 heavy with M75L
相对结合活性，% [3]: 56.5%
相对竞争抑制活性，% [4]: 73.3%

B4: 人源化抗PD-L1单域抗体C1-hu5 (Fc fusion, not shown: a dimerising Fc or GST)
heavy: B1 heavy with L5V
相对结合活性，% [3]: 62.5%
相对竞争抑制活性，% [4]: 61.7%

B5: 人源化抗PD-L1单域抗体C1-hu15 (Fc fusion, not shown: a dimerising Fc or GST)
heavy: B1 heavy with L5V, G41E, L42R, S46A, I70N, P71S
相对竞争抑制活性，% [4]: 68.1%

B6: 人源化抗PD-L1单域抗体C1-hu11 (Fc fusion, not shown: a dimerising Fc or GST)
heavy: B1 heavy with L5V, L42R, S46A
相对结合活性，% [3]: 81.3%
相对竞争抑制活性，% [4]: 89.1%

The remaining lines, values ahead:

Ka [1]: 2.47e+09 M⁻¹
Kd [1]: 405 pM
EC50 [2]: 8.8 ng/mL
Molecule: 对照抗体KN035 (Envafolimab) (Fc fusion)

相对结合活性，% [3]: 76.6%
相对竞争抑制活性，% [4]: 107%
B3: 人源化抗PD-L1单域抗体C1-hu16 (Fc fusion, not shown: a dimerising Fc or GST)
heavy: B1 heavy with L5V, G41E, L42R, S46A

IC50 [5]: 590 ng/mL
EC50 [6]: 8.1 ng/mL
Ka [7]: 3.16e+09 M⁻¹
Kd [7]: 317 pM
koff [7]: 0.000462 s⁻¹
kon [7]: 1.46e+06 M⁻¹ s⁻¹
binding result [8]: no binding
binding result [9]: no binding
binding result [10]: no binding
binding result [11]: no binding
binding result [12]: no binding
binding result [13]: no binding
B7: 单域嵌合抗体(VHH-hFc)chC1 (Fc fusion)
heavy: QVQLQESGGGSVQTGGSLRLSCAASGAAPCMAWFRQAPGKEREGVAASVRGGLSPYYADSVKGRFTISHDIPKNTMYLQMNSLQPDDTALYYCAARATFYRCEGDASSYTYWGQGTQVTVSS
notes: VHH of C1 cloned upstream of the human IgG1 Fc gene and expressed in 293F cells; also called 嵌合抗体chC1; 嵌合抗体C1; not shown: Fc segment of the human IgG1 heavy chain constant region
